Measured values published in US7585967 (VASGENE THERAPEUTICS, dated 2009).
One block for each binder: values may come before it.

Columns and labels:
[1] = biological target: T1, Mouse EphB4/Fc (R & D Systems) (mouse, UniProt P54761 16-539); test: immunofluorescence on frozen KS sections, FITC-labeled anti-human Fc antibody
T1 construct: Bought; also called EphB4/Fc fusion protein; not shown: Fc; detected with anti-human Fc / anti-human IgG-FITC
T1 sequence (looked up): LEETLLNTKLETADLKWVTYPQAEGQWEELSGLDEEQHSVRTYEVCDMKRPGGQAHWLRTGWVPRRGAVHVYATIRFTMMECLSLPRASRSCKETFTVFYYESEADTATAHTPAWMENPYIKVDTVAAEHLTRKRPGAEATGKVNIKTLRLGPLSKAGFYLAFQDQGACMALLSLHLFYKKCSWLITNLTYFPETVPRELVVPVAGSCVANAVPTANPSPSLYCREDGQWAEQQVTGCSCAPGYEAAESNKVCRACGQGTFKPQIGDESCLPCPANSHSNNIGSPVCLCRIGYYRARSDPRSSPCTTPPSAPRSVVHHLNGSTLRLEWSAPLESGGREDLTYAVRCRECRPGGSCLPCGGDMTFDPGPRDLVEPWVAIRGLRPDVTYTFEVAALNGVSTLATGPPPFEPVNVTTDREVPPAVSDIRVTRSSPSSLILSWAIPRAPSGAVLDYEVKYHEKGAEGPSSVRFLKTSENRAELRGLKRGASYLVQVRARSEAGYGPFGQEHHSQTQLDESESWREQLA
From the text: (A) In situ hybridization with antisense probes for ephrin B2 and EphB4 with corresponding H&E stained section to show tumor architecture. Dark blue color in the ISH indicates positive reaction for ephrin B2. No signal for EphB4 was detected in the Kaposi's sarcoma biopsy. For contrast, ISH signal for EphB4 is strong in squamous cell carcinoma tumor cells. Ephrin B2 was also detected in KS using EphB4-AP fusion protein (bottom left). (B) Detection of ephrin B2 with EphB4/Fc fusion protein. Adjacent sections were stained with H&E (left) to show tumor architecture, black rectangle indicates the area shown in the EphB4/Fc treated section (middle) detected with FITC-labeled anti-human Fc antibody as described in the methods section. As a control an adjacent section was treated with human Fc fragment (right). Specific signal arising from EphB4/Fc binding to the section is seen only in areas of tumor cells. (C) Co-expression of ephrin B2 and the HHV8 latency protein LANA1. […] Coexpression is seen as yellow color.
Immunofluorescence detection of EphrinB2 with EPHB4-Fc was done as follows. Frozen sections fixed in 4% paraformaldehyde and blocked with 20% FBS were incubated with 5 μg/ml EphB4/Fc (R&D Systems) for 1 h at RT. Sections were then incubated with 10 μg/ml rabbit anti-human IgG-FITC in PBS (Jackson ImmunoResearch Laboratories West Grove, Pa.) at RT for 1 hour. […]

[2] = biological target: T2, B4ECv3NT protein (soluble extracellular domain of human EphB4 without epitope or purification tags) (human, UniProt P54760 16-537); test: biochemical assays with B2EC-AP reagent
T2 construct: also called EphB4ECnt; B4EC-NT
T2 sequence: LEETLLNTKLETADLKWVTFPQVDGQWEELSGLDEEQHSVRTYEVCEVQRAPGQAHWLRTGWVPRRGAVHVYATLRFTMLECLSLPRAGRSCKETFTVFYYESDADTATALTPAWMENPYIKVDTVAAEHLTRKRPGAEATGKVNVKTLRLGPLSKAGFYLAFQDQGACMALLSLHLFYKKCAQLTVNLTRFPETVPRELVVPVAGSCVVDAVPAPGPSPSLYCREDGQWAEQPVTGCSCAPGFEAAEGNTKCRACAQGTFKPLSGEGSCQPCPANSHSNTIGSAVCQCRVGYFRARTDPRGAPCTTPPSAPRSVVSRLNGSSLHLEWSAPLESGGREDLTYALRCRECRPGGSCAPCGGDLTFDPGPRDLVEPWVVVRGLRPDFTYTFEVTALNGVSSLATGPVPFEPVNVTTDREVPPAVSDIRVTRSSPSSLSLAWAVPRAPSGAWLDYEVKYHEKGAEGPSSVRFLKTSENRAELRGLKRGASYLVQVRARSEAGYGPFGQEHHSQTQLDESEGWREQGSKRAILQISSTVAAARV

[3] = biological target: T3, B4ECv3 protein (soluble extracellular domain of human EphB4 with V5 epitope tag and 6xHis tag on its … (human, UniProt P54760 16-537)); test: B4ECv3 on Ni-NTA-agarose, B2-AP at 50 nM, PNPP colour
T3 construct: also called EphB4ECv3; hB4ECv3
T3 sequence: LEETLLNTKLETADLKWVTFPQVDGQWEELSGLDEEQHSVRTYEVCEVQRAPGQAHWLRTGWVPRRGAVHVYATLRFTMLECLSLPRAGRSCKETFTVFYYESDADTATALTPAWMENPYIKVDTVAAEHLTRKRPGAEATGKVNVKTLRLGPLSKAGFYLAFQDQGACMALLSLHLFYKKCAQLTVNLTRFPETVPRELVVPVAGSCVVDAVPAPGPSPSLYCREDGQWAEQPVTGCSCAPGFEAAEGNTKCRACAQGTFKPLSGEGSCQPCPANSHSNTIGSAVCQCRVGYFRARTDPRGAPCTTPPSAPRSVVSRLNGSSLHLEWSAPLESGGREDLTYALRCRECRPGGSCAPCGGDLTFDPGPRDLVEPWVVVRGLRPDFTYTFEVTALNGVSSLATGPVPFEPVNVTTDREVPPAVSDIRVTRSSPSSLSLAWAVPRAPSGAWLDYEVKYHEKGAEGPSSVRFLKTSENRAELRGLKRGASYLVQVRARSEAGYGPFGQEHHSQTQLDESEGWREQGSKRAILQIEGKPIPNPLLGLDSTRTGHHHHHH
Protocol: 10 µl of Ni-NTA-Agarose were incubated in microcentrifuge tubes with 50 µl of indicated amount of B4ECv3 diluted in binding buffer BB (20 mM Tris-HCl, 0.15 M NaCl, 0.1% bovine serum albumin pH 8) After incubation for 30 min on shaking platform, Ni-NTA beads were washed twice with 1.4 ml of BB, followed by application of 50 µl of B2-AP in the final concentration of 50 nM. Binding was performed for 30 min on shaking platform, and then tubes were centrifuged and washed one time with 1.4 ml of BB. Amount of precipitated AP was measured […] after application of PNPP.

[4] = biological target: T4, B4-GCF1 protein (globular, Cys-rich and first FNIII domain of human EphB4, C-terminally 6xHis tagged) (human, UniProt P54760 16-427); test: Ephrin B2-AP on B4 proteins immobilized on Ni2+-resin or on nitrocellulose membrane
T4 construct: Range is numbered on mature EphB4
T4 sequence: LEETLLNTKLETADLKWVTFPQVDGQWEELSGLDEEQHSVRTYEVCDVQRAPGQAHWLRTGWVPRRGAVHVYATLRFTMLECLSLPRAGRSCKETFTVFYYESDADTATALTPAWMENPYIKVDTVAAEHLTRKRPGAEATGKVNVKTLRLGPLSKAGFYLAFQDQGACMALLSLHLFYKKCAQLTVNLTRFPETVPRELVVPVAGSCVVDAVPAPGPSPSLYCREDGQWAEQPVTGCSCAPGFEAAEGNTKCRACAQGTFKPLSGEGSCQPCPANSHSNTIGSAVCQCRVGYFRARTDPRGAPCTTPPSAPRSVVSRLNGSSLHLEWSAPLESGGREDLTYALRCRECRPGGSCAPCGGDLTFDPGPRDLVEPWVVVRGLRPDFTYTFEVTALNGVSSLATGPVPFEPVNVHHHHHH
Protocol: (§1) To confirm ability of the purified recombinant proteins to bind Ephrin B2, they were tested in an in vitro binding assay. As expected, GC, GCF1 and GCF2, but not CF2 are binding the cognate ligand Ephrin B2 as confirmed by interaction between Ephrin B2-alkaline phosphatase (Ephrin B2-AP) fusion protein with the B4 proteins immobilized on Ni^2+-resin or on nitrocellulose membrane (FIG. 17).
(§2) To test ligand binding properties of the proteins, 10 µl of Ni-NTA-Agarose (Qiagen) were incubated in microcentrifuge tubes with 10-500 ng sample of a B4-ECD protein diluted in 0.5 ml of binding buffer BB (20 mM Tris-HCl, 0.15 M NaCl, 0.1% bovine serum albumin, pH 8). After incubation for 30 min on shaking platform, Ni-NTA beads were washed twice with 1.4 ml of BB, followed by addition of B2-AP fusion protein at concentration of 50 nM. Binding was performed for 30 min on a shaking platform. Tubes were centrifuged and washed once with 1.4 ml of BB. Amount of precipitated AP was measured colorimetrically at 420 nm after application of p-nitrophenyl phosphate (PNPP) and incubation for 5-30 min.

[5] = biological target: T5, B4-GC protein (globular domain and Cys-rich domain of human EphB4, C-terminally 6xHis tagged) (human, UniProt P54760 16-327); test: as above
T5 construct: Range is numbered on mature EphB4
T5 sequence: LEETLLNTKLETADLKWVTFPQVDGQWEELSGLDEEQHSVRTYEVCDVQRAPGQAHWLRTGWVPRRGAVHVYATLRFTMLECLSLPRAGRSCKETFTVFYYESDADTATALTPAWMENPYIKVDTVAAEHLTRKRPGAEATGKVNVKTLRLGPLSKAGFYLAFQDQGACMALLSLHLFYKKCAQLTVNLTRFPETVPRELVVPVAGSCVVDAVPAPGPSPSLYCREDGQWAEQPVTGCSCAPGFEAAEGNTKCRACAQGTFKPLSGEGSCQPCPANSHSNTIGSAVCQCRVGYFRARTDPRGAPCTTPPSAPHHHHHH
Protocol: as §1, §2

[6] = biological target: T6, B4-GCF2 protein (complete extracellular part of human EphB4, C-terminally 6xHis tagged) (human, UniProt P54760 16-537); test: as above
T6 construct: Range 1-522 is numbered on mature EphB4 (after leader removal)
T6 sequence: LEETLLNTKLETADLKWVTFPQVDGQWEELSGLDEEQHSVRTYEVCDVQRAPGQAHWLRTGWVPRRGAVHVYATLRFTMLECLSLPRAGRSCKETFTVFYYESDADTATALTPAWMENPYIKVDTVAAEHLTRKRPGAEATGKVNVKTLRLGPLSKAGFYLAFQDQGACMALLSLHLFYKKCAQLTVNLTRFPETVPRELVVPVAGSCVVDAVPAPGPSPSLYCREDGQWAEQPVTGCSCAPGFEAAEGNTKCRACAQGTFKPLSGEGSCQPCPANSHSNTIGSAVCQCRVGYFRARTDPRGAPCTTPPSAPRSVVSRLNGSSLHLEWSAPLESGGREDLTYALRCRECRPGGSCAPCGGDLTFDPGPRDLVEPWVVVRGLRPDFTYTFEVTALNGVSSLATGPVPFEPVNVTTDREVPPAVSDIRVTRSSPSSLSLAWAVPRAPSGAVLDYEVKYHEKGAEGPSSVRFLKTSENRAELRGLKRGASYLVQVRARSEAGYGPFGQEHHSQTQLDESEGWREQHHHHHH
Protocol: as §1, §2

binding result [1]: binds
B1: ephrin B2 on tumor cells of human Kaposi's sarcoma biopsy sections (ligand)
chain: IVLEPIYWNSSNSKFLPGQGLVLYPQIGDKLDIICPKVDSKTVGQYEYYKVYMVDKDQADRCTIKKENTPLLNCAKPDQDIKFTIKFQEFSPNLWGLEFQKNKDYYIISTSNGSLEGLDNQEGGVCQTRAMKILMKVGQDASSAGSTRNKDPTRRPELEAGTNGRSSTTSPFVKPNPGSSTDGNSAGHSGNNILGSEVALFAGIASGCIIFIVIIITLVVLLLKYRRRHRKHSPQHTTTLSLSTLATPKRSGNNNGSEPSDIIIPLRTADSVFCPHYEKVSGDYGHPVYIVQEMPPQSPANIYYKV

binding result [2]: binds
binding result [3]: binds
binding result [4]: binds
binding result [5]: binds
binding result [6]: binds
B2: Ephrin B2-alkaline phosphatase (Ephrin B2-AP) fusion protein (protein fusion of Ephrin B2 ectodomain with placental alkaline phosphatase) (ligand)
chain: IVLEPIYWNSSNSKFLPGQGLVLYPQIGDKLDIICPKVDSKTVGQYEYYKVYMVDKDQADRCTIKKENTPLLNCAKPDQDIKFTIKFQEFSPNLWGLEFQKNKDYYIISTSNGSLEGLDNQEGGVCQTRAMKILMKVGQDASSAGSTRNKDPTRRPELEAGTNGRSSTTSPFVKPNPGSSTDGNSAGHSGNNILGSEVALFA
notes: also called B2EC-AP; B2ECAP; not shown: placental alkaline phosphatase from the pAPTag2 vector (GenHunter)
